Measurements as given in patent US20180355050A1 (Ablynx, published 2018).
Blank lines part the entries; values can stand above or below the molecule they belong to.

Assays:
[1] = molecular target: T1, human CD40L expressed on CHO cells (human, UniProt P29965 1-261); assay: cell-based or functional assay
T1 sequence: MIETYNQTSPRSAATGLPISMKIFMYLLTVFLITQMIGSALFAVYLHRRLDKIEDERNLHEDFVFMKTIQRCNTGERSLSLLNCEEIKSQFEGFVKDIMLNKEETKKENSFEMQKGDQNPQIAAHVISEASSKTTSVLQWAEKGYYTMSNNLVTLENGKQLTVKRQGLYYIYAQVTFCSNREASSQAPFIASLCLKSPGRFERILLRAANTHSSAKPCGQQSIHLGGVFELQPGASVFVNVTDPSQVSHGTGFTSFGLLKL

[2] = molecular target: T1, human CD40L expressed on CHO cells; assay: cell-based or functional assay; remark: listed apart in the source
recombinant human CD40L [3] = molecular target: T2, recombinant human CD40L (human, UniProt P29965 108-261, limits assumed); assay: FACS ligand competition, biotinylated human CD40L on human CD40 HEK cells
T2 construct: Bought soluble recombinant protein (R&D, HEK, 6420-CL/CF); also called hCD40L; human CD40L (HEK, R&D)
T2 sequence: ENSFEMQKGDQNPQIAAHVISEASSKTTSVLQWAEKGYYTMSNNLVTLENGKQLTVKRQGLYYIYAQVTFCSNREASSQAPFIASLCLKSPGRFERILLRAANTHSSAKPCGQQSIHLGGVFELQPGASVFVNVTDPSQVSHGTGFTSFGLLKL

[4] = molecular target: T3, rat CD40L on transiently transfected HEK cells (rat, UniProt Q9Z2V2 1-260); assay: FACS on HEK cells transiently transfected with rat CD40L
T3 construct: whole, on cells
T3 sequence (looked up): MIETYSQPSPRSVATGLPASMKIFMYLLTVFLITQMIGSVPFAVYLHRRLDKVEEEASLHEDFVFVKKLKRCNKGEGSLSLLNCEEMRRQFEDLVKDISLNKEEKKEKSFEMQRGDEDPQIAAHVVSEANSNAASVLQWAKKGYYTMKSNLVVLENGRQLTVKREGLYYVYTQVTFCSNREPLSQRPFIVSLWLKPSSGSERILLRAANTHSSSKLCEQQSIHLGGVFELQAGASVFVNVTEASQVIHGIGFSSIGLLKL
Description: Cross-reactivity to rat CD40L (UniProt accession numbers: Q9Z2V2 and Q9R254 (secondary)) was tested in FACS. Purified Nanobodies were analyzed on FACS for binding to rat CD40L. 2×10⁵ cells (transiently transfected rat CD40L HEK cells) were incubated with the purified Nanobodies in FACS buffer for 30 minutes at 4° C. Cells were washed 3×, re-suspended and incubated for 30 minutes at 4° C. Cells were washed again 3× and dead cells were stained with TOPRO3 (Molecular probes, T3605). Samples were analyzed on a FACSarray™ (BD Biosciences).

recombinant human CD40L [5] = molecular target: T2, recombinant human CD40L; assay: FACS ligand competition, biotinylated human CD40L on rhesus CD40 HEK cells
HVEM-L (TNF14) = HVEM-L (TNF14) (human, UniProt O43557 74-240, limits assumed); assay: competition ELISA on coated human CD40L, fixed Nanobody, dilution series of competitor
From the text: (§1) The Basic Local Alignment Search Tool (BLAST) was used to identify the closest related protein in the human protein database. […] A fixed concentration of Nanobody was used together with a dilution series of competitor (TNFα, HVEM-L (TNF14) and hRANKL (TN F11); CD40L was used as positive control), starting at a 100-fold excess. The Nano bodies were detected with anti-FLAG-HRP (Sigma (A8592)).

hRANKL (TNF11) = molecular target: T4, hRANKL (TNF11) (human, UniProt O14788 140-317, limits assumed); assay: as above
T4 sequence (looked up): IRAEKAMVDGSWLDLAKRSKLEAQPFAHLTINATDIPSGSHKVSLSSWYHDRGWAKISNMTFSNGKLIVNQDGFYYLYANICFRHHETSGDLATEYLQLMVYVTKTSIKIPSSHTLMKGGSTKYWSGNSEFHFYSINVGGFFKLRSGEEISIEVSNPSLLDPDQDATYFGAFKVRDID
From the text: as §1

human TNFα = human TNFα (human, UniProt P01375 77-233); assay: as above
From the text: as §1

[6] = molecular target: T1, human CD40L expressed on CHO cells; assay: cell-based or functional assay; remark: listed apart in the source
recombinant human CD40L [7] = molecular target: T2, recombinant human CD40L; assay: FACS ligand competition, biotinylated human CD40L on cyno CD40 HEK cells
Description: Cross-reactivity to cynomolgus CD40L (UniProt accession number: G7PG38) and rhesus CD40L (UniProt accession number: G7N4M5) was tested in a ligand competition assay. […] 2×10⁵ cells (transiently transfected HEK cells) were incubated with dilution series of the purified Nanobodies in FACS buffer for 30 minutes at 4° C. Cells were then washed 3× and finally resuspended in FACS buffer containing Streptavidin-PE (BD Pharmingen, #554061). This mixture was incubated for 30 minutes at 4° C. Cells were further handled as set out above.

recombinant mouse CD40L = molecular target: T5, recombinant mouse CD40L (mouse, UniProt P27548 112-260, limits assumed); assay: SPR (ProteOn), immobilised recombinant mouse CD40L 3000-4000 RU; member of the lead panel
T5 construct: also called mouse CD40L (R&D NSO)
T5 sequence (looked up): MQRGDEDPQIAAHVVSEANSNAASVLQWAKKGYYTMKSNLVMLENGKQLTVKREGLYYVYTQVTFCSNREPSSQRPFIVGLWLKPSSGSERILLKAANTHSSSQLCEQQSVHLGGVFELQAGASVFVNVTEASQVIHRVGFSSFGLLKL
Description: To assess binding to mouse CD40L (UniProt accession number: P27548), ProteOn GLC Sensor Chips were coated with 3000-4000 RU of recombinant mouse CD40L (R&D NSO) in 10 mM acetate buffer pH5.5. Purified monovalent anti-CD40L Nanobodies in ProteOn running buffer: PBS/Tween (phosphate buffered saline, pH 7.4 with 0.005% Tween 20) were flown over the sensor chips at 100 nM. Processed curves were used for off-rate analysis based on the Langmuir dissociation model.

recombinant human CD40L [8] = molecular target: T2, recombinant human CD40L; assay: SPR off-rate (ProteOn, 37 °C), immobilised recombinant human CD40L
Description: All off-rates were determined on a ProteOn XPR36 instrument (Bio-Rad Laboratories, Inc.). […] 10-fold diluted periplasmic extracts of anti-CD40L Nanobodies expressing E. coli clones in running buffer ProteOn PBS/Tween (phosphate buffered saline, pH7.4 with 0.005% Tween 20) were flown over the sensor chips. Purified monovalent anti-CD40L Nanobodies were flown over the sensor chips at 100 nM. […] Data obtained was double referenced by Interspot subtraction as well as subtraction of a blank buffer injection. Processed curves were used for off-rate analysis based on the Langmuir dissociation model.
Affinity maturation was performed by screening error prone libraries generated from each parental Nanobody clone. In this approach, amino acid substitutions result from random introduction of mutations in the Nanobody encoding DNA via an error prone PCR. As a consequence, amino acid substitutions are found both in the CDRs and in the Framework Regions (FRs). 5 rounds of phage display selections were performed in solution using decreasing concentrations of recombinant CD40L (from 50 nM to 0.05 pM). Following phage display, individual Nanobodies were sequenced and off-rates were determined by SPR analysis (cf. Example 6.1.3).

human TNFα, sequence (P01375 77-233 limits assumed): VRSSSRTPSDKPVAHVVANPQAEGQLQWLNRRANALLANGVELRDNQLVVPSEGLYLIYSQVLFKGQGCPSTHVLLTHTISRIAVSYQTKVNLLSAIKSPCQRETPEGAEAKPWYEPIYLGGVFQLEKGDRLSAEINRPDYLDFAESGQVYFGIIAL
HVEM-L (TNF14), sequence (O43557 74-240 limits assumed): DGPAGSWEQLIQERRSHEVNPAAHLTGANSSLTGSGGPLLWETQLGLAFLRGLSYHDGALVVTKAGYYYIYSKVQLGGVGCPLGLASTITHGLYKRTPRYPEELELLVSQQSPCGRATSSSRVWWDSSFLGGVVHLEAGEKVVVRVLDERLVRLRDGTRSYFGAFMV

B1: C0100046B03 (VHH)
VHH: EVQLVESGGGLVQAGGSLRLSCAASGRTPLNYHMAWFRQAPGKEREFVAAISSLLGSTDYSDSLKDRFTISRDNAKATLYLRMNNLKPEDTAVYYCAARETTHYSTSDRVNEMRHYDYWGQGTLVTVSS
notes: Monovalent Nanobody; tag of the monovalent form not spelled out; also called C01000046B03
Average IC50 (M), B-cell proliferation assay [2]: 2.18e-09 M | % block (maximum observed effect) (recombinant human CD40L [3]): 96% | IC50 (recombinant human CD40L [3]): 15.3 nM | binding result [4]: no binding | % block (maximum observed effect) (recombinant human CD40L [5]): 100% | IC50 (recombinant human CD40L [5]): 28.2 nM | binding result (HVEM-L (TNF14)): no binding (tested: competitor from a 100-fold excess) | binding result (hRANKL (TNF11)): no binding (tested: competitor from a 100-fold excess) | binding result (human TNFα): no binding (tested: competitor from a 100-fold excess) | IC50 (M), B-cell proliferation assay, +HSA [6]: 2.38e-09 M | % block (maximum observed effect) (recombinant human CD40L [7]): 97% | IC50 (recombinant human CD40L [7]): 22.7 nM | binding result (recombinant mouse CD40L): no binding (tested: 100 nM)

B2: C0100046B03 H100kA (VHH, name in Kabat numbering)
VHH: EVQLVESGGGLVQAGGSLRLSCAASGRTPLNYHMAWFRQAPGKEREFVAAISSLLGSTDYSDSLKDRFTISRDNAKATLYLRMNNLKPEDTAVYYCAARETTHYSTSDRVNEMRAYDYWGQGTLVTVSS
fold improved off-rate over parental C0100046B03 (recombinant human CD40L [8]): ~2 fold

B3: C0100046B03 Y100I (VHH, name in Kabat numbering)
VHH: EVQLVESGGGLVQAGGSLRLSCAASGRTPLNYHMAWFRQAPGKEREFVAAISSLLGSTDYSDSLKDRFTISRDNAKATLYLRMNNLKPEDTAVYYCAARETTHISTSDRVNEMRHYDYWGQGTLVTVSS
fold improved off-rate over parental C0100046B03 (recombinant human CD40L [8]): 1.5 fold

B6: C0100044B07 (VHH)
VHH: EVQLVESGGGLVQPGGRLRLSCAASGFTLDYYALAWFRQAPGKEREGVSCISSSEGSTDYADYADSVKGRFTISRDTAKNTVYLQMNNLKPEDTAVYYCATDETTFFSGSCTLSAATFGSWGQGTLVTVSS
notes: Monovalent Nanobody; tag of the monovalent form not spelled out; also called C01000044B07
Average IC50 (M), B-cell proliferation assay [2]: 9.71e-10 M | % block (maximum observed effect) (recombinant human CD40L [3]): 82% | IC50 (recombinant human CD40L [3]): 5.89 nM | binding result [4]: no binding | % block (maximum observed effect) (recombinant human CD40L [5]): 83% | IC50 (recombinant human CD40L [5]): 5.41 nM | binding result (HVEM-L (TNF14)): no binding (tested: competitor from a 100-fold excess) | binding result (hRANKL (TNF11)): no binding (tested: competitor from a 100-fold excess) | binding result (human TNFα): no binding (tested: competitor from a 100-fold excess) | IC50 (M), B-cell proliferation assay, +HSA [6]: 1.14e-09 M | % block (maximum observed effect) (recombinant human CD40L [7]): 79% | IC50 (recombinant human CD40L [7]): 5.28 nM | binding result (recombinant mouse CD40L): no binding (tested: 100 nM)

B7: C0100028B02 (VHH)
VHH: EVQLVESGGGLVQPGGSLRLSCAASGFTLEYYAIGWFRQAPGKEREGVSCISSEGSTSYTDSVKGRFTISRDNAKNTVYLQMNSLKPEDTAVYYCATDPDRGFLGSSCDTQSHQYDYWGQGTLVTVSS
notes: Monovalent Nanobody produced in P. pastoris (pAX205); Detected with anti-FLAG reagents, but the tag of the monovalent form is not spelled out; also called C01000028B02
Average IC50 (M), B-cell proliferation assay [2]: 1.15e-09 M | % block (maximum observed effect) (recombinant human CD40L [3]): 71% | IC50 (recombinant human CD40L [3]): 4.43 nM | binding result [4]: no binding | % block (maximum observed effect) (recombinant human CD40L [5]): 72% | IC50 (recombinant human CD40L [5]): 4.55 nM | binding result (HVEM-L (TNF14)): no binding (tested: competitor from a 100-fold excess) | binding result (hRANKL (TNF11)): no binding (tested: competitor from a 100-fold excess) | binding result (human TNFα): no binding (tested: competitor from a 100-fold excess) | IC50 (M), B-cell proliferation assay, +HSA [6]: 2.81e-09 M | % block (maximum observed effect) (recombinant human CD40L [7]): 75% | IC50 (recombinant human CD40L [7]): 4.7 nM | binding result (recombinant mouse CD40L): no binding (tested: 100 nM)

B8: C0100028B02 L100aF (VHH, name in Kabat numbering)
VHH: EVQLVESGGGLVQPGGSLRLSCAASGFTLEYYAIGWFRQAPGKEREGVSCISSEGSTSYTDSVKGRFTISRDNAKNTVYLQMNSLKPEDTAVYYCATDPDRGFFGSSCDTQSHQYDYWGQGTLVTVSS
fold improved off-rate over parental C0100028B02 (recombinant human CD40L [8]): 1.3 fold

B9: C0100028B02 Y102F (VHH, name in Kabat numbering)
VHH: EVQLVESGGGLVQPGGSLRLSCAASGFTLEYYAIGWFRQAPGKEREGVSCISSEGSTSYTDSVKGRFTISRDNAKNTVYLQMNSLKPEDTAVYYCATDPDRGFLGSSCDTQSHQYDFWGQGTLVTVSS
fold improved off-rate over parental C0100028B02 (recombinant human CD40L [8]): 1.8 fold

Now from value to molecule:

IC50 (pM), B-cell activation [1]: 101 pM | IC50 (pM), B-cell proliferation [1]: 864 pM
Molecule: CDP7657 (non-pegylated) (Fab)

fold improved off-rate over parental C0100046B03 (recombinant human CD40L [8]): 2.6 fold
B4: C0100046B03 H100kN (VHH, name in Kabat numbering)
VHH: EVQLVESGGGLVQAGGSLRLSCAASGRTPLNYHMAWFRQAPGKEREFVAAISSLLGSTDYSDSLKDRFTISRDNAKATLYLRMNNLKPEDTAVYYCAARETTHYSTSDRVNEMRNYDYWGQGTLVTVSS
notes: single mutation

fold improved off-rate over parental C0100046B03 (recombinant human CD40L [8]): ~2 fold
B5: C0100046B03 H100kS (VHH, name in Kabat numbering)
VHH: EVQLVESGGGLVQAGGSLRLSCAASGRTPLNYHMAWFRQAPGKEREFVAAISSLLGSTDYSDSLKDRFTISRDNAKATLYLRMNNLKPEDTAVYYCAARETTHYSTSDRVNEMRSYDYWGQGTLVTVSS

fold improved off-rate over parental C0100028B02 (recombinant human CD40L [8]): 1.3 fold
B10: C0100028B02 D101G (VHH, name in Kabat numbering)
VHH: EVQLVESGGGLVQPGGSLRLSCAASGFTLEYYAIGWFRQAPGKEREGVSCISSEGSTSYTDSVKGRFTISRDNAKNTVYLQMNSLKPEDTAVYYCATDPDRGFLGSSCDTQSHQYGYWGQGTLVTVSS
